Assay results reported in publication PMC10188367, “Improved cytosine base editors generated from TadA variants” (Nature Biotechnology, 2023).
Substitutions are numbered along the chain they refer to. In names and notes the source's numbering stands.

Columns and labels:
[1] = biological target: the molecule itself; assay: crystal structure; TadA*8.20 (0.15 mM) with 0.22 mM 13-nt ssDNA containing d8Az; PEG 3,350, ammonium acetate, Tris pH 8.5, 20 °C
[2] = biological target: the molecule itself; assay: crystal structure; TADAC-1.17 (0.15 mM) with 0.22 mM 13-nt ssDNA containing d8Az; PEG 3,350, Tacsimate pH 6, 20 °C
[3] = biological target: the molecule itself; assay: crystal structure; TADAC-1.14 (0.18 mM) without ssDNA; ammonium sulfate, HEPES pH 7.5, 20 °C
[4] = biological target: the molecule itself; assay: crystal structure; TADAC-1.19 (0.3 mM) without ssDNA; PEG 3,350, ammonium citrate tribasic pH 7.0, 20 °C

B1: TadA*8.20 (enzyme, E. coli)
chain: MSEVEFSHEYWMRHALTLAKRARDEREVPVGAVLVLNNRVIGEGWNRAIGLHDPTAHAEIMALRQGGLVMQNYRLYDATLYSTFEPCVMCAGAMIHSRIGRVVFGVRNAKTGAAGSLMDVLHHPGMNHRVEITEGILADECAALLCRFFRMPRRVFNAQKKAQSSTD
notes: E. coli tRNA adenosine deaminase TadA, laboratory-evolved variant TadA*8.20 of ABE8.20-m; 167 residues; Crystallised with a 13-nt ssDNA containing 2-deoxy-8-azanebularine; zinc enzyme; also called deaminase of ABE8.20-m; ABE8.20 TadA*; source: E. coli BL21 Star (DE3), purified (Ni-NTA, Ulp1 cleavage, reverse Ni-NTA, heparin, SEC); not shown: His, N-terminal, cleaved; SUMO, N-terminal, cleaved
stoichiometry N [1]: 2

B2: TADAC-1.17 (enzyme, E. coli)
chain: B1 chain with T17A, A48G, S82T, A142E
notes: E. coli TadA variant: TadA*8.20 with T17A, A48G, S82T and A142E relative to TadA*8.20; 167 residues; the rows below are written against wild-type TadA; Crystallised with a 13-nt ssDNA containing 2-deoxy-8-azanebularine; also called deaminase of CABE-T1.17; source: E. coli BL21, purified as described for TadA*8.20; not shown: His, N-terminal, cleaved; SUMO, N-terminal, cleaved
stoichiometry N [2]: 2

B3: TADAC-1.14 (enzyme, E. coli)
chain: B1 chain with S2H, I49K, Y76I, G112H
notes: E. coli TadA variant: TadA*8.20 with S2H, I49K, Y76I and G112H relative to TadA*8.20; Y76I brings position 76 back to the wild-type residue; 167 residues; the rows below are written against wild-type TadA; Crystallised without ssDNA; also called deaminase of CABE-T1.14; source: E. coli BL21 Star (DE3), purified (Ni-NTA, heparin, SEC; Ulp1 tag cleavage and reverse Ni-NTA omitted); not shown: …
stoichiometry N [3]: 2

B4: TADAC-1.19 (enzyme, E. coli)
chain: B1 chain with E27G, I49N
notes: E. coli TadA variant: TadA*8.20 with E27G and I49N relative to TadA*8.20; 167 residues; the rows below are written against wild-type TadA; Crystallised without ssDNA; also called TADAC-T1.19; source: E. coli BL21, purified as described for TadA*8.20; not shown: His, N-terminal, cleaved; SUMO, N-terminal, cleaved
stoichiometry N [4]: 2
